From publication doi:10.1101/2023.01.09.523197

Target: M. tuberculosis RNA polymerase holoenzyme (M. tuberculosis) (UniProt P9WGZ1)
Experiment: single-molecule fluorescence

M. tuberculosis GlnR C60SL147C labelled with Alexa Fluor 647 (from UniProt O53830 1-255) (natural protein)
stoichiometry N: 4
